In the supplement of paper PMC10065799, “High-throughput profiling of sequence recognition by tyrosine kinases and SH2 domains using bacterial peptide display” (eLife, 2023):

Legend:
c-Abl (mouse) = test: phosphorylation enrichment, bacterial display (enrichment ratio); higher = better substrate or ligand; peptides without Tyr show the background
Fes = Fes (UniProt P07332); test: as above
Jak2 = Jak2 (UniProt O60674); test: as above
Fer (mouse) = test: as above
FGFR1 = FGFR1 (UniProt P11362); test: as above
Sequence of FGFR1 (P11362 whole entry, looked up): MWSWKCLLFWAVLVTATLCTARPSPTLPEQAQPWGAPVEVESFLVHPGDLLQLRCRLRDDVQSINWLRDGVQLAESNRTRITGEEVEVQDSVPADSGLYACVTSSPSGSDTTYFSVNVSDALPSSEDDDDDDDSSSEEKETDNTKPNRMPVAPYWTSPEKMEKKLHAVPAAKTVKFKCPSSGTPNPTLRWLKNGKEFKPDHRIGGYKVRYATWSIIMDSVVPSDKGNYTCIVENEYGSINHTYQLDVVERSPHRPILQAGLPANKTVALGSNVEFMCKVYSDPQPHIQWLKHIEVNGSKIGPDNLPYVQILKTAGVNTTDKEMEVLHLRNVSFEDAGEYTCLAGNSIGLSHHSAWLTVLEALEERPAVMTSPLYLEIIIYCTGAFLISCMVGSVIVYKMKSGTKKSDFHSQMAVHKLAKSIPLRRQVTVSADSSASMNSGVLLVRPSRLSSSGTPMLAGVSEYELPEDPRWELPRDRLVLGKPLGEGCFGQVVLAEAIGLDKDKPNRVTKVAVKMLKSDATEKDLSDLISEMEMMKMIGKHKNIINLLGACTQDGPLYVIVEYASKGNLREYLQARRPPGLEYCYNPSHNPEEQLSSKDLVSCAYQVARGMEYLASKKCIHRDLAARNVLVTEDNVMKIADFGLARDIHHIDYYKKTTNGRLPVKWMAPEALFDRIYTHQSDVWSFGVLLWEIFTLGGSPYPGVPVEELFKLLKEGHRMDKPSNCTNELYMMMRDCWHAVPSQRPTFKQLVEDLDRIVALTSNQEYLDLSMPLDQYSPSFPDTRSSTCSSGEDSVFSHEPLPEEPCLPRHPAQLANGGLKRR

FGFR3 = FGFR3 (UniProt P22607); test: as above
Hck = Hck (UniProt P08631); test: as above
EPHB2 = EPHB2 (UniProt P29323); test: as above
Sequence of EPHB2 (P29323 whole entry, looked up): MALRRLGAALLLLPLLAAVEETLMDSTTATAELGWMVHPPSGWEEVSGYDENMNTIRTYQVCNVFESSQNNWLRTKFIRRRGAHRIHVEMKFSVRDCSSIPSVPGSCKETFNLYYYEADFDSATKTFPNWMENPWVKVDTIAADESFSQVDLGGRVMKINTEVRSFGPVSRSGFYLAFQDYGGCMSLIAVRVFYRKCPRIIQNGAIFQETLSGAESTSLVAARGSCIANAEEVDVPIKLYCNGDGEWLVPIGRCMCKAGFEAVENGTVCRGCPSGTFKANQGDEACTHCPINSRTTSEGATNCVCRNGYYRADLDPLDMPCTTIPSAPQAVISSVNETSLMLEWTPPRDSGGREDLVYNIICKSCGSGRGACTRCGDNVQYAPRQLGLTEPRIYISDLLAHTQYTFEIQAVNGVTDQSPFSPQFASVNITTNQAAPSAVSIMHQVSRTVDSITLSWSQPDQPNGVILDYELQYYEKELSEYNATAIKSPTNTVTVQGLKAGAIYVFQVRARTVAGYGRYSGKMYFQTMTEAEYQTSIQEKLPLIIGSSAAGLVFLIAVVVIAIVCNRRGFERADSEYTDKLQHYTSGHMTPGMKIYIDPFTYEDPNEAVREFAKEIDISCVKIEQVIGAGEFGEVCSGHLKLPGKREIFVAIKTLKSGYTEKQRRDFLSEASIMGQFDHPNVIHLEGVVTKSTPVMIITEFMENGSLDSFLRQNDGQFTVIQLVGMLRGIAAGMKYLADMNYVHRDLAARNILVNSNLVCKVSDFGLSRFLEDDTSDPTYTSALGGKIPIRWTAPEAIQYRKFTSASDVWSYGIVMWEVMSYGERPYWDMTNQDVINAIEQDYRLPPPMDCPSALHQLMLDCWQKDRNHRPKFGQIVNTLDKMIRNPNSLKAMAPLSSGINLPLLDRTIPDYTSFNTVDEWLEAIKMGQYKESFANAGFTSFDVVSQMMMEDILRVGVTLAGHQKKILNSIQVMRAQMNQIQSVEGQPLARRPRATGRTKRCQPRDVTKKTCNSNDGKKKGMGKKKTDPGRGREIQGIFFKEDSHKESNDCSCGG

Fyn = Fyn (UniProt P06241); test: as above
c-Src = test: as above
MERTK = MERTK (UniProt Q12866); test: as above
AncSZ = test: as above
EPHB1 = EPHB1 (UniProt P54762); test: as above
Sequence of EPHB1 (P54762 whole entry, looked up): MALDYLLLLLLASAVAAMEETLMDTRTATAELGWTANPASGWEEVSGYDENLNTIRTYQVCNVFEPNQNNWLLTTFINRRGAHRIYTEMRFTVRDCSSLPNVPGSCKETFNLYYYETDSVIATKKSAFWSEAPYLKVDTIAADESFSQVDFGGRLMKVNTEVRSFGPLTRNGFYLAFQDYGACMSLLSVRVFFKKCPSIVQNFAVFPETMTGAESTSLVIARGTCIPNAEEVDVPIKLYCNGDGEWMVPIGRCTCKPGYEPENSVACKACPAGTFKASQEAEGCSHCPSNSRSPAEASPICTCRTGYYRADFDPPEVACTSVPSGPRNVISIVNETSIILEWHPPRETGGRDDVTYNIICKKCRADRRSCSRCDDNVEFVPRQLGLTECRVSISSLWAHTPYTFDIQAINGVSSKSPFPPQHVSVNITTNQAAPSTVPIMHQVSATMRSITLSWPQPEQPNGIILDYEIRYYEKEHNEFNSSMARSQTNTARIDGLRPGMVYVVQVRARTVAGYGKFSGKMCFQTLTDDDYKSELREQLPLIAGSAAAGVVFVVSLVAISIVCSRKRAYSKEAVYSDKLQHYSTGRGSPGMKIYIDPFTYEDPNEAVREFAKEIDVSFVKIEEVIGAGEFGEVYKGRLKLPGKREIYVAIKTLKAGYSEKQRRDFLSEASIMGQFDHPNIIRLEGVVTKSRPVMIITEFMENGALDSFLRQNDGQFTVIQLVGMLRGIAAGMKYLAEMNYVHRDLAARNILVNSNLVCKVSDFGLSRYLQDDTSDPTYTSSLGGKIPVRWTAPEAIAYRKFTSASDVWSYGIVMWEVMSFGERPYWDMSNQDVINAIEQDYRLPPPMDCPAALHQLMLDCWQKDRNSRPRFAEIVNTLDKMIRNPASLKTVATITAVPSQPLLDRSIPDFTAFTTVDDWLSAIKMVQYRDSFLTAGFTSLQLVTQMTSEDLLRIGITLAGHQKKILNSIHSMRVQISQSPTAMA

Grb2 SH2 = Grb2 SH2 (UniProt P62993); test: SH2 binding enrichment of the phosphorylated peptide, bacterial display (enrichment ratio); higher = better substrate or ligand; peptides without Tyr show the background
Sequence of Grb2 SH2 (P62993 whole entry, looked up): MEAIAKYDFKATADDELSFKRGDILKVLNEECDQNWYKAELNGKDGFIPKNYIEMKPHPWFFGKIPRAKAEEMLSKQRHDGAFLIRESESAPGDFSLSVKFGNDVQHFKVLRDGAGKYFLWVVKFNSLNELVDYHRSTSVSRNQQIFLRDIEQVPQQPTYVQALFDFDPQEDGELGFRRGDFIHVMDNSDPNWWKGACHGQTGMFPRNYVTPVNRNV

c-Src SH2 = test: as above
SHP2-C SH2 = test: as above
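Wherever SH2 binding enrichment of the phosphorylated peptide, bacterial display is given: peptide library displayed on the E. coli surface as eCPX fusions, selected cells deep-sequenced, score is each peptide's frequency after selection divided by its frequency in the input.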
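Wherever phosphorylation enrichment, bacterial display is given: 11-residue human phosphosite peptides and single-mutation variants displayed on the E. coli surface, counted by deep sequencing, each peptide's frequency after selection divided by its frequency in the unselected input library; frequency after pTyr selection over input frequency; kinase dosed for 20-30% of maximal phosphorylation in three min.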

Sequence of Jak2 (O60674 whole entry, looked up): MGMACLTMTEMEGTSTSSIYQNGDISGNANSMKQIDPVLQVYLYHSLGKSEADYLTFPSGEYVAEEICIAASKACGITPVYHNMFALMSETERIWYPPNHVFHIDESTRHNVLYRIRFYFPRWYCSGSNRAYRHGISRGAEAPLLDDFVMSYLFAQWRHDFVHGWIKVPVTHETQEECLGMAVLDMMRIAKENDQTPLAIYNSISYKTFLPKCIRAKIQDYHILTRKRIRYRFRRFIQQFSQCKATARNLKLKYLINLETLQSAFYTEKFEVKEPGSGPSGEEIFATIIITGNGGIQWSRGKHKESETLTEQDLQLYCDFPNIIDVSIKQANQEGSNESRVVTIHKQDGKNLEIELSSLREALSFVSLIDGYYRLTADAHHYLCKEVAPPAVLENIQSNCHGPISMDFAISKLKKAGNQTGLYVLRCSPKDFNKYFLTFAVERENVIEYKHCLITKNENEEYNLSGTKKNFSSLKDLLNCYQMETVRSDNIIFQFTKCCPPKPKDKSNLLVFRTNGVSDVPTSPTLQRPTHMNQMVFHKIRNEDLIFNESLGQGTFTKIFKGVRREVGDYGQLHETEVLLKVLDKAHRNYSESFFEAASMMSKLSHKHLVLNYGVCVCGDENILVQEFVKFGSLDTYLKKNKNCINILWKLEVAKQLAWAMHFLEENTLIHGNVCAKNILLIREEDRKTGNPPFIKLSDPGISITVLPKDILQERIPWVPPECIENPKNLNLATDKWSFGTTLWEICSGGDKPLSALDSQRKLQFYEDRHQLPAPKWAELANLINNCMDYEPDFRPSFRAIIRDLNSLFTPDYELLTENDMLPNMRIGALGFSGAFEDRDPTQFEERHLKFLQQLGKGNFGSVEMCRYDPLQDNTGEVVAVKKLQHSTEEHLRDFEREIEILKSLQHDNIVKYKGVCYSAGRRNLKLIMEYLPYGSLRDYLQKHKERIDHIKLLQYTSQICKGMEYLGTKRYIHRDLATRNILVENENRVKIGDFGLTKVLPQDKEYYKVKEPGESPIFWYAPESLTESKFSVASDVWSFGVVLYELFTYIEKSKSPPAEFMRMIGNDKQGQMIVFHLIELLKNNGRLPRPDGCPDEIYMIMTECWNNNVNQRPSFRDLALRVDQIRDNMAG
Sequence of Fes (P07332 whole entry, looked up): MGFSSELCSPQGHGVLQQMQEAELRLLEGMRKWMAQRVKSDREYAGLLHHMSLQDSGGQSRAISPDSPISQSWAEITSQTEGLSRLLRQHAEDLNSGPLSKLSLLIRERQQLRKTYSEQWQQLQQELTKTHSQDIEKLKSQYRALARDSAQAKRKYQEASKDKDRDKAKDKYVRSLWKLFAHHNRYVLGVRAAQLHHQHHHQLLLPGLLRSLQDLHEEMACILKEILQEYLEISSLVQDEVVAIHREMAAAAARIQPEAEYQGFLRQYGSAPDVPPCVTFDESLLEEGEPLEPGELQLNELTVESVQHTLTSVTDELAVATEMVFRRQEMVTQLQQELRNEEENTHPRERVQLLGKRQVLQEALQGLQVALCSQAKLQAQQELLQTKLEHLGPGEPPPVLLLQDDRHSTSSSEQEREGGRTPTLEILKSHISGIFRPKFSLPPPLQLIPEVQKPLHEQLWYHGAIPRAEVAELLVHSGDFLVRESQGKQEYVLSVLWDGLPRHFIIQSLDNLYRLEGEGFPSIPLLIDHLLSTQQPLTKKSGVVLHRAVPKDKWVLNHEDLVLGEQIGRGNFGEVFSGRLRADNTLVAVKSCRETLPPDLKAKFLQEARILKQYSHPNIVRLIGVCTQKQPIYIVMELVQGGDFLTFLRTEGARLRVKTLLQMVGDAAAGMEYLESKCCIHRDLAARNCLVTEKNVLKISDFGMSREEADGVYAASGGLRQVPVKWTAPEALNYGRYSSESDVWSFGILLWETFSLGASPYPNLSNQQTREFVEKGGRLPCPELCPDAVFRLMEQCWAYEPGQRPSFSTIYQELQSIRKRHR

Row | Sequence | phosphorylation enrichment (c-Abl (mouse)) | phosphorylation enrichment (Fes) | phosphorylation enrichment (Jak2) | phosphorylation enrichment (Fer (mouse)) | phosphorylation enrichment (FGFR1) | phosphorylation enrichment (FGFR3) | phosphorylation enrichment (Hck) | phosphorylation enrichment (EPHB2) | phosphorylation enrichment (Fyn) | phosphorylation enrichment (c-Src) | phosphorylation enrichment (MERTK) | phosphorylation enrichment (AncSZ) | phosphorylation enrichment (EPHB1) | SH2 binding enrichment (Grb2 SH2) | SH2 binding enrichment (c-Src SH2) | SH2 binding enrichment (SHP2-C SH2)
1 | HDRREYSRFEK [ITGB7_Y758_Y753H] | 0.887 | 0.973 | 0.647 | 0.731 | 0.585 | 0.718 | 0.524 | 0.373 | 0.317 | 0.53 | 0.445 | 0.743 | 0.754 | 0.965 | 0.722 | 0.873
2 | GIVEDYRPPLY [ACVRL1_Y421_F425L] | 0.59 | 0.918 | 0.675 | 0.399 | 0.387 | 0.608 | 0.382 | 0.482 | 0.455 | 0.412 | 0.393 | 0.727 | 0.382 | 0.859 | 0.429 | 0.783
3 | CSEEMYRLMLQ [RET_Y981] | 0.947 | 1.41 | 1.5 | 0.619 | 0.921 | 0.853 | 0.666 | 0.664 | 0.606 | 0.643 | 0.573 | 1.4 | 0.695 | 0.7 | 0.414 | 0.549
4 | EREFKYGAHKF [OAT_Y50_N54K_YF] | 0.496 | 0.738 | 0.571 | 0.329 | 0.424 | 0.438 | 0.427 | 0.412 | 0.443 | 0.423 | 0.392 | 0.599 | 0.339 | 0.846 | 0.464 | 0.585
5 | CEHRGSLFLAI [TEK_Y897_Y897S_YF] | 0.944 | 1.16 | 1.04 | 0.533 | 0.501 | 0.725 | 0.457 | 0.564 | 0.427 | 0.457 | 0.422 | 1.03 | 0.55 | 0.989 | 0.567 | 0.672
6 | DPADRYLIEQC [CDKL5_Y286_T288I] | 0.903 | 1.32 | 1.06 | 0.511 | 0.587 | 0.777 | 0.556 | 0.682 | 0.51 | 0.518 | 0.467 | 1.19 | 0.626 | 0.88 | 0.544 | 0.67
7 | CTNIHYNYMCN [TP53_Y234_T231N] | 1.62 | 0.82 | 0.799 | 0.522 | 0.468 | 0.62 | 0.437 | 0.537 | 0.464 | 0.408 | 0.418 | 0.754 | 0.734 | 1.05 | 5.66 | 1.86
8 | YLNSSYINIST [IL23R_Y178_T175N] | 0.574 | 0.799 | 1.23 | 0.439 | 2.69 | 2.14 | 0.591 | 0.453 | 0.475 | 0.436 | 0.606 | 0.875 | 0.525 | 24.6 | 4.78 | 2.57
9 | YRDMDYRSYPH [RBM10_Y41_R46H] | 0.5 | 0.64 | 0.621 | 0.487 | 3.25 | 2.1 | 0.457 | 0.486 | 0.412 | 0.376 | 0.357 | 0.567 | 0.578 | 0.998 | 0.938 | 0.825
10 | TFEFKYPEGSS [TGM4_Y440_YF] | 0.734 | 1.18 | 0.765 | 0.512 | 0.518 | 0.827 | 0.617 | 0.583 | 0.55 | 0.499 | 0.497 | 1.02 | 0.437 | 0.804 | 0.506 | 0.463
11 | AGIKAYQSCLQ [ADGRA2_Y377_T375K] | 0.85 | 0.983 | 0.841 | 0.424 | 0.453 | 0.572 | 0.537 | 0.55 | 0.383 | 0.55 | 0.558 | 0.786 | 0.583 | 0.767 | 0.57 | 0.64
12 | ETEMLYGSAPR [PRC1_Y464] | 0.716 | 0.805 | 0.556 | 6.32 | 0.474 | 0.557 | 6.51 | 0.513 | 6.44 | 5.25 | 0.414 | 0.889 | 0.433 | 0.784 | 0.437 | 0.686
13 | EKNANYKEGTF [CLRN1_Y171_I168N_YF] | 0.647 | 0.757 | 0.635 | 0.397 | 0.401 | 0.46 | 0.381 | 0.445 | 0.452 | 0.389 | 0.425 | 0.715 | 0.346 | 0.944 | 0.503 | 0.874
14 | DDDPEDRKFLE [UPF3B_Y160_Y160D] | 0.867 | 1.24 | 1.17 | 0.56 | 0.51 | 0.641 | 0.594 | 0.501 | 0.56 | 0.503 | 0.541 | 1.12 | 0.586 | 0.938 | 0.579 | 0.613
15 | GTFVIYVRFSG [FLNB_Y1687_G1691S_YF] | 0.979 | 1.4 | 1.14 | 0.443 | 0.406 | 0.569 | 0.454 | 0.468 | 0.426 | 0.539 | 0.472 | 1.17 | 0.572 | 1.15 | 0.442 | 0.812
16 | SFPPTYRYERG [INPPL1_Y661] | 0.373 | 0.592 | 0.449 | 0.29 | 0.498 | 0.49 | 0.437 | 0.43 | 0.431 | 0.427 | 0.505 | 0.73 | 0.362 | 0.831 | 0.489 | 0.605
17 | IIGNGYFFHVF [MYBPC3_Y1135_R1138H_YF] | 0.776 | 1.09 | 1.07 | 0.398 | 0.4 | 0.699 | 0.314 | 0.547 | 0.313 | 0.34 | 0.254 | 1.11 | 0.569 | 0.848 | 0.484 | 0.74

Row | Sequence | phosphorylation enrichment (c-Abl (mouse)) | phosphorylation enrichment (Fes) | phosphorylation enrichment (Jak2) | phosphorylation enrichment (Fer (mouse)) | phosphorylation enrichment (FGFR1) | phosphorylation enrichment (FGFR3) | phosphorylation enrichment (Hck) | phosphorylation enrichment (EPHB2) | phosphorylation enrichment (Fyn) | phosphorylation enrichment (c-Src) | phosphorylation enrichment (MERTK) | phosphorylation enrichment (AncSZ) | phosphorylation enrichment (EPHB1) | SH2 binding enrichment (Grb2 SH2) | SH2 binding enrichment (c-Src SH2) | SH2 binding enrichment (SHP2-C SH2)
18 | RLAKTYETTLE [ALB_Y377] | 0.955 | 1.39 | 1.09 | 0.721 | 0.711 | 0.895 | 0.622 | 0.855 | 0.752 | 0.758 | 0.596 | 0.86 | 0.555 | 0.834 | 0.473 | 0.569
19 | REGAKYVSHDA [ASS1_Y113_G117D] | 0.75 | 0.988 | 0.886 | 0.767 | 0.648 | 0.739 | 0.553 | 0.423 | 0.655 | 0.565 | 0.833 | 1.4 | 0.508 | 0.678 | 0.389 | 0.452
20 | SAVTGYRVNVI [FN1_Y937_D940N] | 0.415 | 0.752 | 0.634 | 0.434 | 0.391 | 0.488 | 0.399 | 0.407 | 0.403 | 0.386 | 0.359 | 0.633 | 0.407 | 0.95 | 0.505 | 0.823
21 | PSQRHYVFFFS [PTEN_Y174_R173H_YF] | 1.22 | 2.72 | 1.92 | 0.535 | 0.759 | 1.2 | 0.712 | 0.763 | 0.757 | 0.787 | 0.892 | 2.04 | 0.926 | 1.25 | 0.896 | 1.16
22 | SMEGLYSSTQD [CLIC5_Y111] | 1.03 | 1.71 | 1.36 | 3.64 | 0.698 | 0.905 | 4.12 | 2.27 | 3.51 | 3.13 | 2.43 | 1.57 | 1.94 | 0.777 | 0.542 | 0.446
23 | QLQVFYATRDQ [MIPEP_Y579_L582R] | 1.2 | 1.71 | 1.96 | 0.59 | 0.86 | 1 | 1.14 | 0.805 | 0.881 | 0.977 | 0.567 | 1.27 | 0.787 | 0.904 | 0.659 | 1.25
24 | KNDSIYVVKGN [KIT_Y823_N822I] | 0.47 | 0.647 | 0.516 | 0.47 | 0.39 | 0.469 | 1.35 | 0.689 | 0.786 | 0.922 | 0.443 | 0.574 | 0.339 | 0.848 | 0.507 | 0.707
25 | VPANRYDLLRL [FARSB_Y72_C76R] | 0.498 | 0.65 | 0.54 | 0.452 | 0.414 | 0.58 | 0.429 | 0.403 | 0.39 | 0.393 | 0.451 | 0.519 | 0.424 | 0.765 | 3.31 | 0.648
26 | EQLRAYLEGTC [HLA-C_Y183] | 0.53 | 1.08 | 0.866 | 0.558 | 0.843 | 0.692 | 0.55 | 0.591 | 0.453 | 0.423 | 0.403 | 1.02 | 0.467 | 0.844 | 0.561 | 0.707
27 | RLPNGYGLAFR [DLK1_Y262_S260N_YF] | 0.694 | 1.06 | 0.587 | 0.737 | 0.684 | 0.858 | 0.62 | 0.707 | 0.649 | 0.616 | 0.51 | 1.5 | 0.737 | 0.988 | 0.699 | 0.932
28 | CGQDPYIRELG [UROS_Y19] | 0.877 | 1.27 | 0.971 | 0.534 | 0.497 | 0.707 | 0.569 | 0.53 | 0.535 | 0.433 | 0.427 | 1.05 | 0.674 | 0.731 | 0.563 | 0.492
29 | NGTVTYAIIAG [CDH23_Y1672_V1675I] | 0.892 | 1.28 | 0.989 | 0.503 | 0.628 | 0.746 | 1.31 | 1.12 | 0.968 | 1.33 | 2.68 | 1.1 | 2.83 | 0.78 | 1.43 | 16.6
30 | LHNLFYQLEAE [PKP2_Y616_S615F] | 2.03 | 2.87 | 2.4 | 1.66 | 1.02 | 1.07 | 2.2 | 1.9 | 8.59 | 10.4 | 1.6 | 2.35 | 1.35 | 1.02 | 0.725 | 0.909
31 | YTGNTYRVGDT [FN1_Y106] | 0.569 | 0.775 | 0.563 | 0.415 | 0.439 | 0.534 | 0.486 | 0.424 | 0.441 | 0.467 | 0.389 | 0.666 | 0.448 | 0.766 | 0.406 | 0.55
32 | SVKVFYKKCWS [EPHA7_Y202_YF] | 0.965 | 1.49 | 1.21 | 0.532 | 0.507 | 0.841 | 0.457 | 0.647 | 0.424 | 0.59 | 0.409 | 1.14 | 0.621 | 0.747 | 0.396 | 0.707
33 | VGGRIYIDDGL [PKLR_Y218] | 0.727 | 0.885 | 0.91 | 0.681 | 0.575 | 0.539 | 0.463 | 0.431 | 0.459 | 0.493 | 0.383 | 0.742 | 0.493 | 0.909 | 0.45 | 0.778
